Here are results for 6 molecules from paper PMC8482512, “Aim32 is a dual-localized 2Fe-2S mitochondrial protein that functions in redox quality control” (The Journal of Biological Chemistry, 2021).

Assay [1] concerns the target Erv1 with a C-terminal histidine tag (Erv1-His) (S. cerevisiae) (UniProt P27882). In words: pull-down; mitochondria of His-tagged strains solubilized in 1% digitonin, 500 μg lysate incubated with Ni2+-agarose beads, washed, eluted, immunoblot; untagged WT strain as control. Background: A western blot detects proteins with antibodies after separation by electrophoresis.

In assay [2] the target is Osm1 with a C-terminal histidine tag (Osm1-His) (S. cerevisiae) (UniProt P21375). Described as above.
Sequence of Osm1 with a C-terminal histidine tag (Osm1-His) (S. cerevisiae) (P21375 33-501): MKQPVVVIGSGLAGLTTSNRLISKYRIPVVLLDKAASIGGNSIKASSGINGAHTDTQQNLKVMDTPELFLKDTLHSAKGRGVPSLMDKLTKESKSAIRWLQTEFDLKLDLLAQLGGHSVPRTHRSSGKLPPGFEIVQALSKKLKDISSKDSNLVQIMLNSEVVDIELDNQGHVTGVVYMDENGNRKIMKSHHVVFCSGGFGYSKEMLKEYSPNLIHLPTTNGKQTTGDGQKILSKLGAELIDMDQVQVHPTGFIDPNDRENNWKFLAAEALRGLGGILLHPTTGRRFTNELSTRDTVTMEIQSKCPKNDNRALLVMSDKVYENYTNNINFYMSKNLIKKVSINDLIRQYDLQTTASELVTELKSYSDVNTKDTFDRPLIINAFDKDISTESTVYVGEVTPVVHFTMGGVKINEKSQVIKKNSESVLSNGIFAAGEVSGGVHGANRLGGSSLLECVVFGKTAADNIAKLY
The target in assay [3] is T1, Aim32 with a C-terminal FLAG tag (Aim32-FLAG) (S. cerevisiae, UniProt Q04689 1-311).
T1 construct: Aim32, S. cerevisiae, PCR-amplified from genomic DNA of strain GA74-1A; also called pAIM32-FLAG; pAIM32; source: S. cerevisiae Δaim32 strain transformed with [pAIM32-FLAG]; (GPD promoter), mitochondrial lysate; not shown: 3XFLAG, C-terminal, kept
T1 sequence (looked up): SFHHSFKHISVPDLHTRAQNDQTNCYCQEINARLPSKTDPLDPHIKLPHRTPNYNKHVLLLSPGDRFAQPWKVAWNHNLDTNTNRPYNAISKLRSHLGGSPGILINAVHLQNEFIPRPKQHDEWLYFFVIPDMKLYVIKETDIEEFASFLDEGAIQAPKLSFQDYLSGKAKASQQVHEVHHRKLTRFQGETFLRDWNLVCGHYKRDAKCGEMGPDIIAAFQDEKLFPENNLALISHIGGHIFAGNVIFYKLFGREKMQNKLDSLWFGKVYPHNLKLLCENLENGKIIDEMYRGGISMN
As to the kind of experiment: co-IP; mitochondrial lysate of Δaim32 [pAIM32-FLAG], ANTI-FLAG M2 affinity gel (FLAG-resin), immunoblot with the indicated antibodies. To be noted: partners not purified.

Sequence of Erv1 with a C-terminal histidine tag (Erv1-His) (S. cerevisiae) (P27882 whole entry): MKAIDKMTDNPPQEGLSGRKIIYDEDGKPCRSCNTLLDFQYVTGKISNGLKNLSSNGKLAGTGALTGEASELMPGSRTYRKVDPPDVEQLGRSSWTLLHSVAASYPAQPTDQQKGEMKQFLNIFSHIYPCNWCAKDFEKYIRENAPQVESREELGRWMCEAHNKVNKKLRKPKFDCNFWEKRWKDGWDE

As for “Altered inheritance of mitochondria 32 (Aim32) (from UniProt Q04689 1-311) (natural protein)”, the values for the fraction copurified in assay [1] and in assay [2] were 10% and 5%, respectively.

B1: Tim17 (natural protein, UniProt P39515 1-158, looked up)
chain: MSADHSRDPCPIVILNDFGGAFAMGAIGGVVWHGIKGFRNSPLGERGSGAMSAIKARAPVLGGNFGVWGGLFSTFDCAVKAVRKREDPWNAIIAGFFTGGALAVRGGWRHTRNSSITCACLLGVIEGVGLMFQRYAAWQAKPMAPPLPEAPSSQPLQA
notes: Tim17, component of the TIM23 translocon, S. cerevisiae; source: endogenous, S. cerevisiae mitochondrial lysate
B1 gave a fraction copurified in assay [3] of approximately 10%.

B2: Tim23 (natural protein, UniProt P32897 1-222, looked up)
chain: MSWLFGDKTPTDDANAAVGGQDTTKPKELSLKQSLGFEPNINNIISGPGGMHVDTARLHPLAGLDKGVEYLDLEEEQLSSLEGSQGLIPSRGWTDDLCYGTGAVYLLGLGIGGFSGMMQGLQNIPPNSPGKLQLNTVLNHITKRGPFLGNNAGILALSYNIINSTIDALRGKHDTAGSIGAGALTGALFKSSKGLKPMGYSSAMVAAACAVWCSVKKRLLEK
notes: Tim23, component of the TIM23 translocon, S. cerevisiae; source: endogenous, S. cerevisiae mitochondrial lysate
As to B2, the fraction copurified in assay [3] is approximately 10%.

B3: Sod2 (enzyme, UniProt P00447 27-233, looked up)
chain: KVTLPDLKWDFGALEPYISGQINELHYTKHHQTYVNGFNTAVDQFQELSDLLAKEPSPANARKMIAIQQNIKFHGGGFTNHCLFWENLAPESQGGGEPPTGALAKAIDEQFGSLDELIKLTNTKLAGVQGSGWAFIVKNLSNGGKLDVVQTYNQDTVTGPLVPLVAIDAWEHAYYLQYQNKKADYFKAIWNVVNWKEASRRFDAGKI
notes: Sod2, matrix antioxidant (superoxide dismutase), S. cerevisiae; source: endogenous, S. cerevisiae mitochondrial lysate
B3: in assay [3], the fraction copurified was approximately 10%.

B4: Tim50 (natural protein, UniProt Q02776 44-476, looked up)
chain: QKETKDDKPKSILTDDMLFKAGVDVDEKGQGKNEETSGEGGEDKNEPSSKSEKSRRKRQTSTDIKREKYANWFYIFSLSALTGTAIYMARDWEPQESEELKKDIDNGYTLSLMYKRFKARFNSMFTYFQEPPFPDLLPPPPPPPYQRPLTLVITLEDFLVHSEWSQKHGWRTAKRPGADYFLGYLSQYYEIVLFSSNYMMYSDKIAEKLDPIHAFVSYNLFKEHCVYKDGVHIKDLSKLNRDLSKVIIIDTDPNSYKLQPENAIPMEPWNGEADDKLVRLIPFLEYLATQQTKDVRPILNSFEDKKNLAEEFDHRVKKLKDKFYGDHKSGGNWAMTALGLGNSLGGSTKFPLDLIHEEGQKNYLMFMKMIEEEKEKIRIQQEQMGGQTFTLKDYVEGNLPSPEEQMKIQLEKQKEVDALFEEEKKKKKIAESK
notes: Tim50, component of the TIM23 translocon, S. cerevisiae; source: endogenous, S. cerevisiae mitochondrial lysate
Turning to B4, the fraction copurified in assay [3] was approximately 10%.

B5: Tim22 (natural protein, UniProt Q12328 1-207, looked up)
chain: MVYTGFGLEQISPAQKKPYNELTPEEQGERGAEMIMNFMTSCPGKSVVSGVTGFALGGVLGLFMASMAYDTPLHTPTPANTAATATAGNIGVGGISRTVQQISDLPFRQQMKLQFTDMGKKSYSSAKNFGYIGMIYAGVECVIESLRAKNDIYNGVTAGFFTGAGLAYKAGPQAALMGGAGFAAFSAAIDLYMKSEDGRPPQNDFKE
notes: Tim22, component of the TIM22 translocon, S. cerevisiae; source: endogenous, S. cerevisiae mitochondrial lysate
B5: in assay [3], the fraction copurified was approximately 10%.
